Reference: doi:10.1101/2023.10.27.564453

Target: MIK2 ectodomain (MIK2^LRR), residues 45-707, 6 x His-MBP tagged (Arabidopsis thaliana) (UniProt Q8VZG8)
Experiment: MST

Chain of UniProt Q8VZG8 (Q8VZG8 45-707): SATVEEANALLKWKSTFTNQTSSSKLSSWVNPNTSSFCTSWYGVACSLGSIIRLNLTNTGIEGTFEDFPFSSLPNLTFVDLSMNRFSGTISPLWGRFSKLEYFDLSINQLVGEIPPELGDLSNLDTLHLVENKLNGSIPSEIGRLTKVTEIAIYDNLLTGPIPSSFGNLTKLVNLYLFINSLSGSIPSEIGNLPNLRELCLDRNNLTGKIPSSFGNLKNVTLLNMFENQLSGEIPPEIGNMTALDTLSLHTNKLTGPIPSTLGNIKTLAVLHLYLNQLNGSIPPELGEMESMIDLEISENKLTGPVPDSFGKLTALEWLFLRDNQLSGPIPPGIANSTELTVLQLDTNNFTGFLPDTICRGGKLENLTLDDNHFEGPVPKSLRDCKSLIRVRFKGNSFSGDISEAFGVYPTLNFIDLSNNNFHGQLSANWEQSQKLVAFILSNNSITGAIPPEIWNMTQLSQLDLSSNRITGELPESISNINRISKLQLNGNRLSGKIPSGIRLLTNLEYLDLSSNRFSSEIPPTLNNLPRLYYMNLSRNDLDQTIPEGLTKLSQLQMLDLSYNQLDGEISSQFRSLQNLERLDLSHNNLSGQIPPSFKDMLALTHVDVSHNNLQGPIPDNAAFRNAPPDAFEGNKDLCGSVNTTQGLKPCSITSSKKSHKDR

5-FAM-SCOOP10 peptide (SCOOP10#2, N-terminally 5-FAM labelled) (from UniProt Q9LU08 30-98)
Kd: 13.5 nM

5-FAM-SCOOP12 peptide (N-terminally 5-FAM labelled) (from UniProt B3H7I1 44-78)
Kd: 22 nM

SCOOP12 peptide (unlabelled) (from UniProt B3H7I1 44-78)
Ki: 40.1 nM
